{"source": "the supplement of paper PMC9942255"}
{"tested_on": "Bacillus subtilis DB104 (SP-AmyQ fusion secretion)", "assay": "AmyQ secretion efficiency, weighted average sort bin (1 = best secretion, 10 = worst) (bin number (weighted average, 1-10)); higher = lower secretion efficiency", "summary_of_the_method": "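The secretion score was taken as the read-frequency-weighted mean bin number, normalised to beads per bin, with low-abundance sequences excluded. Bins came from large-particle flow cytometry sorting of occupied alginate beads (~65 nL, about 0.3 cells each, with fluorescein-starch) into 10 equally populated groups by green/red fluorescence ratio after about 13 h at room temperature and nile red staining. The cells were a B. subtilis DB104 library with mature AmyQ fused to designed signal peptides, integrated at amyE, and each bin's amplicons were Illumina-sequenced.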"}
{"sequence": "MHLIRAAGAVCLAVVLIAGCRKKKRKRHRAEGENT", "AmyQ secretion efficiency": 7.2}
{"sequence": "MKRLCRKKRKKSLFLVLLPGKALGAVD", "AmyQ secretion efficiency": 7.45}
{"sequence": "MTRLLSTLLIGIMLLTFAPSAFAKQD", "AmyQ secretion efficiency": 1.6}
{"sequence": "MKNMSCKLVVSVTLFFTIGPLAHAQNS", "AmyQ secretion efficiency": 2.62}
{"sequence": "MKMKSGMEQAVSVLLLLSRLPVQASFTSE", "AmyQ secretion efficiency": 7.78}
{"sequence": "MKRQSQTLSFLSIIVAYPIQTNASPM", "AmyQ secretion efficiency": 8.43}
{"sequence": "MLKKKWMVGLLAGCLAAGRKKKKKAFATEN", "AmyQ secretion efficiency": 7.31}
{"sequence": "MRPVFPLILSAVLFLSCFFIAGATEASASKR", "AmyQ secretion efficiency": 3.68}
{"sequence": "MKRIRIPMTLALGAALTIAPLSFASVEEN", "AmyQ secretion efficiency": 6.71}
{"sequence": "MKLAKRVSALTPSTTLAITAKPKEL", "AmyQ secretion efficiency": 6.44}
{"sequence": "MTMLRKIIGWILLLCPLFAFTVIASGKEV", "AmyQ secretion efficiency": 8.01}
{"sequence": "MYKGWLIQFAVMLSVLSTFTYSASAVGV", "AmyQ secretion efficiency": 5.73}
{"sequence": "MKKKKAGLFLAAAVLLCLMVPQQIQGASS", "AmyQ secretion efficiency": 4.01}
{"sequence": "MKLAKRVSALTPSTTLAITLKAKEL", "AmyQ secretion efficiency": 8.05}
{"sequence": "MKQFAITLSVLCALILLVPTLLVIPFQHNKEAKASV", "AmyQ secretion efficiency": 5.85}
{"sequence": "MKSKWMSGLLLVAVGFSFTQVMVHARRR", "AmyQ secretion efficiency": 7.53}
{"sequence": "MKKKQVMLALTAAAGLGLTALHSAPAAKADDD", "AmyQ secretion efficiency": 5.2}
{"sequence": "MKVCQKSIVRFLVSLIIGTFVIRKKFMANAQSD", "AmyQ secretion efficiency": 6.59}
{"sequence": "MLCVMMLLFSAIASFPVSAQCKDQ", "AmyQ secretion efficiency": 6.94}
{"sequence": "MKKRKRRNFKRFIAAFLVLALMISLVPDVLAKST", "AmyQ secretion efficiency": 3.69}
{"sequence": "MKKLVLCVSILAVILSGVVLTQLS", "AmyQ secretion efficiency": 5.78}
{"sequence": "MRMLWRSLALCGLALTLAPCAQIAEP", "AmyQ secretion efficiency": 6.42}
{"sequence": "MKRQRLLVSLRVWMVFLMNWVTPDRKTAAAAVY", "AmyQ secretion efficiency": 6.95}
{"sequence": "MRNLTKTSLLLAGLCTAAQMVFVTHSTASAEES", "AmyQ secretion efficiency": 3.1}
{"sequence": "MGTTIVAGLAVSAVVGSSMAAAPAEAKTI", "AmyQ secretion efficiency": 6.13}
{"sequence": "MKLWMRKTLVVLFTIVTFGLVSPPAALMAATP", "AmyQ secretion efficiency": 2.71}
{"sequence": "MSMIGLLFMLCLAALFTIGFPAQQADAAEA", "AmyQ secretion efficiency": 2}
{"sequence": "MKKLVLCVSILAVILRKKALTQLS", "AmyQ secretion efficiency": 7.41}
{"sequence": "MKRLLVSLRVWMVFLMNWVTPDRKTQAAAVY", "AmyQ secretion efficiency": 6.81}
{"sequence": "MKLKKRVSMFKRRRTMCGGLFVTPAKAVKT", "AmyQ secretion efficiency": 6.84}
{"sequence": "MNSYINVLTMCFLGLILFVPTALADNS", "AmyQ secretion efficiency": 1.26}
{"sequence": "MRFTKVVGFLSVLGLAAKKRKRRAQAEKA", "AmyQ secretion efficiency": 7.6}
{"sequence": "MLKKKWMVFLLAICLAAFGFSYNAFATEN", "AmyQ secretion efficiency": 3.29}
{"sequence": "MRFTKVVGFLSVLGLAAVFPLTASSAAQAEKA", "AmyQ secretion efficiency": 1.25}
{"sequence": "MKKIVSILFMFGLVMGFSQFQPSTGFAADK", "AmyQ secretion efficiency": 3.91}
{"sequence": "MKVLLSALLLLLFAFEPSKSGKKL", "AmyQ secretion efficiency": 6.03}
{"sequence": "MFNRLFRVCFLAALIMAFTLPNSVVTSVYAQKP", "AmyQ secretion efficiency": 2.32}
{"sequence": "MRKRRKKILALFVLSLGLLSFMVTPVSAASK", "AmyQ secretion efficiency": 2.65}
{"sequence": "MITTIVITCVMAASLTLGSLLPAGYASAKED", "AmyQ secretion efficiency": 4.06}
{"sequence": "MFNRLFRVCFLAALIMAFTLPNSVYLQKP", "AmyQ secretion efficiency": 6.77}
{"sequence": "MKNMSCKLVVSVTLFFSFLTIGPLAHAQND", "AmyQ secretion efficiency": 1.22}
{"sequence": "MLKKIGYQGCPRSYGSLLFFTAPASAHVS", "AmyQ secretion efficiency": 7.75}
{"sequence": "MTKKAWFLPLVCVLLISGWLAPAASASGQTT", "AmyQ secretion efficiency": 1.87}
{"sequence": "MNKKYQTGQVCIIFTSALFPTFSSVTAAQG", "AmyQ secretion efficiency": 3.64}
{"sequence": "MRKTIFAFLTGLMMFGTITACSASPD", "AmyQ secretion efficiency": 5.81}
{"sequence": "MRPVFPLRRRRRRFLSCFFGARQTEASASKR", "AmyQ secretion efficiency": 7.47}
{"sequence": "MKRTWNRCGSSYKTYYLVAGSVPFHAEAKKP", "AmyQ secretion efficiency": 6.5}
{"sequence": "MRPVFPLILSAVLFLSCFFGARQTEKSASKR", "AmyQ secretion efficiency": 6.8}
{"sequence": "MLKKIALTLCPAIVGSLLFFTAPASVHVS", "AmyQ secretion efficiency": 6.13}
{"sequence": "MKKVLMAFIICLSLILSVLAAPPSGAKTESV", "AmyQ secretion efficiency": 5.06}
{"sequence": "MRKTIFAFLTGLMMFGTITASPSTASASPD", "AmyQ secretion efficiency": 2.04}
{"sequence": "MKRLLLGILCSAAVFLIGAPSRALGAEV", "AmyQ secretion efficiency": 2.5}
{"sequence": "MAIIIAIIAAVIVIAALITFNVCNASPG", "AmyQ secretion efficiency": 7.28}
{"sequence": "MRKIIGWILLLCIIPLFAFTVIASGKEV", "AmyQ secretion efficiency": 7.63}
{"sequence": "MKKRKVLMAFIICLSLILSVLAAPPSGAKAESV", "AmyQ secretion efficiency": 1.28}
{"sequence": "MKKRFRRRKKRAFILFAGAIAIPS", "AmyQ secretion efficiency": 6.13}
{"sequence": "MAIIIAIIAAVIVIAALITFNVRNDSPG", "AmyQ secretion efficiency": 6.52}
{"sequence": "MHLIRAAGAVCLAVVLIAGCRFNEDQHQLEGENT", "AmyQ secretion efficiency": 6.09}
{"sequence": "MKKVVSALSISALALSVSGVASAHEI", "AmyQ secretion efficiency": 2.8}
{"sequence": "MTMLRKIIGWILLLCIIPLFAFTVIASDKEV", "AmyQ secretion efficiency": 7.16}
{"sequence": "MKTKTLFIFSAILTLSIFAPNETFAQEE", "AmyQ secretion efficiency": 1.78}
{"sequence": "MKRLKRRKLIGIMLLTFAPSAFAKQD", "AmyQ secretion efficiency": 4.68}
{"sequence": "MKKTIMSFVAVAALSTTAFGAHASWKEI", "AmyQ secretion efficiency": 6.56}
{"sequence": "MKKKKAAAVLLSLGLVFGFSYGAGHVAEAKTK", "AmyQ secretion efficiency": 1.65}
